Measurements: US20030138894A1 (Human Genome Sciences, published 2003)
Positions of bridges follow the written chain, without caps; N, C: chain ends. No end group written: not given here.

B1: ACE-2 binding polypeptide DQNCFAMYCFEF (peptide)
peptide: DQNCFAMYCFEF
modifications: not fully specified (N-terminus, C-terminus, bridges); cysteine pairing not given here
B2: ACE-2 binding polypeptide DDHCEWASYWKWDLCLHD (peptide)
peptide: DDHCEWASYWKWDLCLHD
modifications: not fully specified (N-terminus, C-terminus, bridges); cysteine pairing not given here
B3: ACE-2 binding polypeptide YEDCIGHALFCMTF (peptide)
peptide: YEDCIGHALFCMTF
modifications: not fully specified (N-terminus, C-terminus, bridges); cysteine pairing not given here
B4: ACE-2 binding polypeptide YDNCLGLANLNFCFDF (peptide)
peptide: YDNCLGLANLNFCFDF
modifications: not fully specified (N-terminus, C-terminus, bridges); cysteine pairing not given here
B5: ACE-2 binding polypeptide FSPCKALRHSPWWVCPSG (peptide)
peptide: FSPCKALRHSPWWVCPSG
modifications: not fully specified (N-terminus, C-terminus, bridges); cysteine pairing not given here
B6: ACE-2 binding polypeptide EGNCFLIGPWCFEF (peptide)
peptide: EGNCFLIGPWCFEF
modifications: not fully specified (N-terminus, C-terminus, bridges); cysteine pairing not given here
B7: ACE-2 binding polypeptide DDDCGWIGFANFHLCLHG (peptide)
peptide: DDDCGWIGFANFHLCLHG
modifications: not fully specified (N-terminus, C-terminus, bridges); cysteine pairing not given here

biological target: T1, FLAG-tagged ACE-2 target (human, UniProt Q9BYF1 18-740); assay: phage ELISA on FLAG-ACE-2
T1 construct: range 1-740; obtained from Human Genome Sciences, Inc; also called FLAG-ACE-2; tagged human ACE-2; not shown: FLAG tag
Method: Phage enriched from the third round of selection were screened by ELISA for strong ACE-2 binders. Immulon 2 96-well plates (Dynatech) were coated with streptavidin for 1 hour at 37° C. and subsequently coated with anti-FLAG antibody for 1 hour at room temperature. Half of the plates were further coated with FLAG-ACE-2 as the target plates, and the other half of the plates were coated with FLAG peptide as background plates. The amount of each protein or peptide coated was 100 ng per well. The coated plates were then incubated for 1 hour at room temperature with 1:2 diluted overnight phage cultures that were made by inoculating phage from individual plaques into bacterial host cells. After being washed 7 times with PBST, the plates were incubated with HRP-conjugated anti-M13 antibody (Pharmacia) for 1 hour at room temperature, washed 5 times, developed with TMB peroxidase substrate solution (Kirkegaad & Perry Laboratories, Gaithersburg, Md.), and read at 630 nm on an ELISA plate reader.

T1 sequence (Q9BYF1 18-740 limits assumed): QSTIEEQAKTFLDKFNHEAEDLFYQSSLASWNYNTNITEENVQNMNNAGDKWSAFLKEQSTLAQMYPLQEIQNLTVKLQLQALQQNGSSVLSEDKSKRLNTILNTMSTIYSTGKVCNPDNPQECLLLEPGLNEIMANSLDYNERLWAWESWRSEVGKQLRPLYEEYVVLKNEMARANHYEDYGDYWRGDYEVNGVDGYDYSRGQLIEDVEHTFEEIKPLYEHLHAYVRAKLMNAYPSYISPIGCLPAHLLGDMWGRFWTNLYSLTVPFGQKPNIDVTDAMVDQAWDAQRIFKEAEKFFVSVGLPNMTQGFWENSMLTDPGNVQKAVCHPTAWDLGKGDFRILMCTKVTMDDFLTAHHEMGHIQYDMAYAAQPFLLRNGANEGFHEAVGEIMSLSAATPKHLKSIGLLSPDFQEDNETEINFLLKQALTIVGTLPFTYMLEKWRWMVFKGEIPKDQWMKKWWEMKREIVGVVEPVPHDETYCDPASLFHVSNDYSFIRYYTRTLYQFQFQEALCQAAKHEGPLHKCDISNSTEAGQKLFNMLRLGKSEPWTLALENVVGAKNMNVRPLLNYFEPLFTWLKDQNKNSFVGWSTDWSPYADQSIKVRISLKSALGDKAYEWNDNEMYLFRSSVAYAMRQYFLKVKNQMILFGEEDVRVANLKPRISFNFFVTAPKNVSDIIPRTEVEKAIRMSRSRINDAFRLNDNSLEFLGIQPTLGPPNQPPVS

Binding result, binds:
NHHCLEFSSFEYCFDF (not fully specified (bridges); cysteine pairing not given here) [ACE-2 binding polypeptide NHHCLEFSSFEYCFDF]
B1
NLDCIYLQNHSYCFDF (not fully specified (bridges); cysteine pairing not given here) [ACE-2 binding polypeptide NLDCIYLQNHSYCFDF]
LHDCFIYADYEYCFDF (not fully specified (bridges); cysteine pairing not given here) [ACE-2 binding polypeptide LHDCFIYADYEYCFDF]
DDDCMMLPLTMFCFDF (not fully specified (bridges); cysteine pairing not given here) [ACE-2 binding polypeptide DDDCMMLPLTMFCFDF]
NWNCLGTNELQFCLDF (not fully specified (bridges); cysteine pairing not given here) [ACE-2 binding polypeptide NWNCLGTNELQFCLDF]
YFACTNNDSYLFCLDF (not fully specified (bridges); cysteine pairing not given here) [ACE-2 binding polypeptide YFACTNNDSYLFCLDF]
NDYCTVFTGALFCLDF (disulfide 4-13 (inferred); not fully specified (N-terminus, C-terminus)) [ACE-2 binding polypeptide NDYCTVFTGALFCLDF]
B2
B3
FHDCSWGPWGPWEICTRL (not fully specified (bridges); cysteine pairing not given here) [ACE-2 binding polypeptide FHDCSWGPWGPWEICTRL]
B4
SDYCVGNNAVTYCFDF (not fully specified (bridges); cysteine pairing not given here) [ACE-2 binding polypeptide SDYCVGNNAVTYCFDF]
PNQCGVDIWALFCVDF (not fully specified (bridges); cysteine pairing not given here) [ACE-2 binding polypeptide PNQCGVDIWALFCVDF]
DDVCENADFAWLGWCMHF (not fully specified (bridges); cysteine pairing not given here) [ACE-2 binding polypeptide DDVCENADFAWLGWCMHF]
GSDCEWVNFTMFQMCISN (not fully specified (bridges); cysteine pairing not given here) [ACE-2 binding polypeptide GSDCEWVNFTMFQMCISN]
HIECEEWGYWCIEM (not fully specified (bridges); cysteine pairing not given here) [ACE-2 binding polypeptide HIECEEWGYWCIEM]
YSGCADMYMFCIDF (not fully specified (bridges); cysteine pairing not given here) [ACE-2 binding polypeptide YSGCADMYMFCIDF]
B5
KFECMPSSLFCVDF (not fully specified (bridges); cysteine pairing not given here) [ACE-2 binding polypeptide KFECMPSSLFCVDF]
WEDCLWIGMMCVEF (not fully specified (bridges); cysteine pairing not given here) [ACE-2 binding polypeptide WEDCLWIGMMCVEF]
HLDCYNLVDNMFCFDF (not fully specified (bridges); cysteine pairing not given here) [ACE-2 binding polypeptide HLDCYNLVDNMFCFDF]
B6
NADCEWVNFNHVDLCMWN (not fully specified (bridges); cysteine pairing not given here) [ACE-2 binding polypeptide NADCEWVNFNHVDLCMWN]
DDVCYSLIMADYCLDF (not fully specified (bridges); cysteine pairing not given here) [ACE-2 binding polypeptide DDVCYSLIMADYCLDF]
SNDCVWLQFWGGDMCFLP (not fully specified (bridges); cysteine pairing not given here) [ACE-2 binding polypeptide SNDCVWLQFWGGDMCFLP]
FDDCQTSWFQGFWLCIDD (not fully specified (bridges); cysteine pairing not given here) [ACE-2 binding polypeptide FDDCQTSWFQGFWLCIDD]
YNFCMLIGERDYCLDF (not fully specified (bridges); cysteine pairing not given here) [ACE-2 binding polypeptide YNFCMLIGERDYCLDF]
GGQCGTSYLFCIDF (not fully specified (bridges); cysteine pairing not given here) [ACE-2 binding polypeptide GGQCGTSYLFCIDF]
NPECGALFCMEF (not fully specified (bridges); cysteine pairing not given here) [ACE-2 binding polypeptide NPECGALFCMEF]
DFGCNAMFCVEF (not fully specified (bridges); cysteine pairing not given here) [ACE-2 binding polypeptide DFGCNAMFCVEF]
AWDCEWNLFDSTFFCPGF (not fully specified (bridges); cysteine pairing not given here) [ACE-2 binding polypeptide AWDCEWNLFDSTFFCPGF]
DDKCFGWAHFCFDF (not fully specified (bridges); cysteine pairing not given here) [ACE-2 binding polypeptide DDKCFGWAHFCFDF]
DNLCMSGGSFDYCFDF (not fully specified (bridges); cysteine pairing not given here) [ACE-2 binding polypeptide DNLCMSGGSFDYCFDF]
DDYCFNISSYSYCFDF (not fully specified (bridges); cysteine pairing not given here) [ACE-2 binding polypeptide DDYCFNISSYSYCFDF]
NRECHALFCMDF (disulfide 4-9 (inferred); not fully specified (N-terminus, C-terminus)) [ACE-2 binding polypeptide NRECHALFCMDF]
LYECEWKQFGPVEMCLNF (not fully specified (bridges); cysteine pairing not given here) [ACE-2 binding polypeptide LYECEWKQFGPVEMCLNF]
B7
